Data on 3 substances can be found in article PMC5433087.

In the test the target is HER3 (Human, His-tagged; Sino Biological) (human) (UniProt P21860). Briefly: SPR. In general terms: Surface plasmon resonance follows binding to a sensor surface in real time, without labels.
Sequence of UniProt P21860 (P21860 20-643): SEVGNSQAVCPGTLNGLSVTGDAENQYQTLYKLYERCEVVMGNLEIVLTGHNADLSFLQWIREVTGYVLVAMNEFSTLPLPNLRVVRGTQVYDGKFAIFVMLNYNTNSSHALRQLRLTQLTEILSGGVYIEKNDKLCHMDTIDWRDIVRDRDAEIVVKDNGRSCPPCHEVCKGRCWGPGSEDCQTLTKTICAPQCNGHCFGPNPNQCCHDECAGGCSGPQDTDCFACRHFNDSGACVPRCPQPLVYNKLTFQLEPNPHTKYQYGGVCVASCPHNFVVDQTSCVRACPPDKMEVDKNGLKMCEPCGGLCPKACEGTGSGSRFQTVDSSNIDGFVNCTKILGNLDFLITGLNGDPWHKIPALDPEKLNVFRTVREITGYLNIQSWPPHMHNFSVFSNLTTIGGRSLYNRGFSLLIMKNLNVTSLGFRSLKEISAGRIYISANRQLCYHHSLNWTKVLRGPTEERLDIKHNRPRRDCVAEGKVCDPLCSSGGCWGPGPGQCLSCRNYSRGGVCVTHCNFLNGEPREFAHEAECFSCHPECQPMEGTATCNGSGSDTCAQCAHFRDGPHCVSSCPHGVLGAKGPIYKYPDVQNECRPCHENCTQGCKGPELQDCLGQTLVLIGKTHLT

Broadly, the Kd is a measure of binding affinity in units of concentration. A higher Kd goes with weaker binding. Turning to “bivalent HER3 affibody (two Z_(05413) domains joined by a spacer of three repeat units) (designed binder)”, the Kd was 0.327 nM. That is a sub-nanomolar value.

In turn, “monovalent HER3 affibody (Z_(05413) affibody) (designed binder)” registered a Kd of 0.316 nM.

In turn, “trivalent HER3 affibody (three Z_(05413) domains joined by spacers of three repeat units) (designed binder)” displayed a Kd of 2.34 nM.
